Test results reported in patent US20210388110A1 (published 2021).

Legend:
soluble human CD3ε chain = target: T1, soluble human CD3ε chain (human, UniProt P07766 23-126, limits assumed); assay: SPR (Biacore)
T1 construct: the text says soluble human CD3ε chain; also called human CD3 epsilon chain

soluble human GPC3 = target: T2, soluble human GPC3 (human, UniProt P51654 25-563, limits assumed); assay: SPR (Biacore), soluble human GPC3
T2 construct: soluble human GPC3 as analyte; also called glypican 3
T2 sequence (P51654 other isoform, or with tags, fused parts or gaps limits assumed, form in doubt): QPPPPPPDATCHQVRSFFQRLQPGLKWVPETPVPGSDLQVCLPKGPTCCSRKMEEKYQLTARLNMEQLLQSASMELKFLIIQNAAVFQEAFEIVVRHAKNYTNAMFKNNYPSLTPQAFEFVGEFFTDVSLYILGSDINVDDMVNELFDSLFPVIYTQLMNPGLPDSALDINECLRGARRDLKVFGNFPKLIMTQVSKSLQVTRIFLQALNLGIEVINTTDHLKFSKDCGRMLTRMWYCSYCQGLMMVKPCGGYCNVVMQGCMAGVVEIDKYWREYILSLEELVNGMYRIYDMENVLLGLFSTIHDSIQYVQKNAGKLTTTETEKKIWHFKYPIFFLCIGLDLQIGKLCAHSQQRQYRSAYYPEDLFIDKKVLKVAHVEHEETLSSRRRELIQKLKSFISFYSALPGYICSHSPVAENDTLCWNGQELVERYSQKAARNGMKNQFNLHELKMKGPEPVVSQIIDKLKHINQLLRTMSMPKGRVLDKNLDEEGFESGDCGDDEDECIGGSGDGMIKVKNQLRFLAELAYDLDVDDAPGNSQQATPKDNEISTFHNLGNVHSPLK

T1 sequence (P07766 23-126 limits assumed): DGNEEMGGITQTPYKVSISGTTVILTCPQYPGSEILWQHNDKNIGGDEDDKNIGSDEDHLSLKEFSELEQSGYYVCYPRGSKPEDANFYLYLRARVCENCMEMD

Binder | Kd (soluble human CD3ε chain) [nM] | Kd (soluble human GPC3) [nM]
TR01H040-E22Hh/none-Hi-Kn010G3/L0000-k0 (antibody, human IgG1, kappa, L234A L235A, N297A, single-arm) heavy: QVQLVESGGGLVQPGRSLRLSCAASGFTFSNAWMHWVRQAPGKGLEWVAQIKDKSQNYATYYAESVKGRFTISRADSKNSIYLQMNSLKTEDTAVYYCRYVHYSASYGVDAWGQGTTVTVSSASTKGPSVFPLAPSSKSTSGGTAALGCLVKDYFPEPVTVSWNSGALTSGVHTFPAVLQSSGLYSLSSVVTVPSSSLGTQTYICNVNHKPSNTKVDKKVEPKSCDKTHTCPPCPAPEAAGGPSVFLFPPKPKDTLMISRTPEVTCVVVDVSHEDPEVKFNWYVDGVEVHNAKTKPREEQYASTYRVVSVLTVLHQDWLNGKEYKCKVSNKALPAPIEKTISKAKGQPREPQVYTLPPSRCELTKNQVSLSCAVKGFYPSDIAVEWESNGQPENNYKTTPPVLDSDGSFFLVSKLTVDKSRWQQGNVFSCSVMHEALHNHYTQKSLSLSPDYKDDDDK EPKSSDKTHTCPPCPAPELLGGPSVFLFPPKPKDTLMISRTPEVTCVVVDVSHEDPEVKFNWYVDGVEVHNAKTKPREEQYNSTYRVVSVLTVLHQDWLNGKEYKCKVSNKALPAPIEKTISKAKGQPREPQVCTLPPSRDELTKNQVSLWCLVKGFYPSDIAVEWESNGQPENNYKTTPPVLDSDGSFFLYSKLTVDKSRWQQGNVFSCSVMHEALHNRYTQKSLSLSP light: DIVMTQSPLSLPVTPGEPASISCRSSQSLVHSNRNTYLHWYQQKPGQAPRLLIYKVSNRFSGVPDRFSGSGSGTDFTLKISRVEAEDVGVYYCGQGTQVPYTFGQGTKLEIKRTVAAPSVFIFPPSDEQLKSGTASVVCLLNNFYPREAKVQWKVDNALQSGNSQESVTEQDSKDSTYSLSSTLTLSKADYEKHKVYACEVTHQGLSSPVTKSFNRGEC | 36 | –
H0610-G1dh/none-Hi-Kn010G3/TR01L018-k0 (antibody, human IgG1, kappa, single-arm (one Fab)) heavy: not shown EPKSSDKTHTCPPCPAPELLGGPSVFLFPPKPKDTLMISRTPEVTCVVVDVSHEDPEVKFNWYVDGVEVHNAKTKPREEQYNSTYRVVSVLTVLHQDWLNGKEYKCKVSNKALPAPIEKTISKAKGQPREPQVCTLPPSRDELTKNQVSLWCLVKGFYPSDIAVEWESNGQPENNYKTTPPVLDSDGSFFLYSKLTVDKSRWQQGNVFSCSVMHEALHNRYTQKSLSLSP light: DIVMTQSPLSLPVTPGEPASISCQASESPVHSNRNTYLHWYLQKPGQSPQLLIYKVSNRFSGVPDRFSGSGSGTDFTLKISRVEAEDVGVYYCGQGTQVPYTFGQGTKLEIKRTVAAPSVFIFPPSDEQLKSGTASVVCLLNNFYPREAKVQWKVDNALQSGNSQESVTEQDSKDSTYSLSSTLTLSKADYEKHKVYACEVTHQGLSSPVTKSFNRGEC | – | 2.17
H0610-G1dh/none-Hi-Kn010G3/TR01L012-k0 (antibody, human IgG1, kappa, single-arm (one Fab)) heavy: not shown EPKSSDKTHTCPPCPAPELLGGPSVFLFPPKPKDTLMISRTPEVTCVVVDVSHEDPEVKFNWYVDGVEVHNAKTKPREEQYNSTYRVVSVLTVLHQDWLNGKEYKCKVSNKALPAPIEKTISKAKGQPREPQVCTLPPSRDELTKNQVSLWCLVKGFYPSDIAVEWESNGQPENNYKTTPPVLDSDGSFFLYSKLTVDKSRWQQGNVFSCSVMHEALHNRYTQKSLSLSP light: DIVMTQSPLSLPVTPGEPASISCRSSQSLVHSNRNTYLHWYLQKPGQSPQLLIYKVSNRFRGVPDRFSGSGSGTDFTLKISRVEAEDVGVYYCGQGTQVPYTFGQGTKVEIERTVAAPSVFIFPPSDEQLKSGTASVVCLLNNFYPREAKVQWKVDNALQSGNSQESVTEQDSKDSTYSLSSTLTLSKADYEKHKVYACEVTHQGLSSPVTKSFNRGEC | – | 4.25
H0610-G1dh/none-Hi-Kn010G3/TR01L011-k0 (antibody, human IgG1, kappa, single-arm (one Fab)) heavy: not shown EPKSSDKTHTCPPCPAPELLGGPSVFLFPPKPKDTLMISRTPEVTCVVVDVSHEDPEVKFNWYVDGVEVHNAKTKPREEQYNSTYRVVSVLTVLHQDWLNGKEYKCKVSNKALPAPIEKTISKAKGQPREPQVCTLPPSRDELTKNQVSLWCLVKGFYPSDIAVEWESNGQPENNYKTTPPVLDSDGSFFLYSKLTVDKSRWQQGNVFSCSVMHEALHNRYTQKSLSLSP light: DIVMTQSPLSLPVTPGEPASISCQASESLVHSNRNTYLHWYQQKPGQAPRLLIYKVSNRFRGVPDRFSGSGSGTDFTLKISRVEAEDVGVYYCGQGTQVPYTFGQGTKVEIERTVAAPSVFIFPPSDEQLKSGTASVVCLLNNFYPREAKVQWKVDNALQSGNSQESVTEQDSKDSTYSLSSTLTLSKADYEKHKVYACEVTHQGLSSPVTKSFNRGEC | – | 4.02
CE115HA121-E22Hh//-Hi-Kn010G3/L0000-k0 (antibody, human IgG1, kappa, L234A L235A, N297A, single-arm) heavy: QVQLVESGGGVVQPGRSLRLSCAASGFTFSNAWMHWVRQAPGKGLEWVALIKAKSNNYATYYAESVKGRFTISRDDSKNSLYLQMNSLKTEDTAVYYCRYVHYGAYYGVDAWGQGTTVTVSSASTKGPSVFPLAPSSKSTSGGTAALGCLVKDYFPEPVTVSWNSGALTSGVHTFPAVLQSSGLYSLSSVVTVPSSSLGTQTYICNVNHKPSNTKVDKKVEPKSCDKTHTCPPCPAPEAAGGPSVFLFPPKPKDTLMISRTPEVTCVVVDVSHEDPEVKFNWYVDGVEVHNAKTKPREEQYASTYRVVSVLTVLHQDWLNGKEYKCKVSNKALPAPIEKTISKAKGQPREPQVYTLPPSRCELTKNQVSLSCAVKGFYPSDIAVEWESNGQPENNYKTTPPVLDSDGSFFLVSKLTVDKSRWQQGNVFSCSVMHEALHNHYTQKSLSLSPDYKDDDDK EPKSSDKTHTCPPCPAPELLGGPSVFLFPPKPKDTLMISRTPEVTCVVVDVSHEDPEVKFNWYVDGVEVHNAKTKPREEQYNSTYRVVSVLTVLHQDWLNGKEYKCKVSNKALPAPIEKTISKAKGQPREPQVCTLPPSRDELTKNQVSLWCLVKGFYPSDIAVEWESNGQPENNYKTTPPVLDSDGSFFLYSKLTVDKSRWQQGNVFSCSVMHEALHNRYTQKSLSLSP light: DIVMTQSPLSLPVTPGEPASISCRSSQSLVHSNRNTYLHWYQQKPGQAPRLLIYKVSNRFSGVPDRFSGSGSGTDFTLKISRVEAEDVGVYYCGQGTQVPYTFGQGTKLEIKRTVAAPSVFIFPPSDEQLKSGTASVVCLLNNFYPREAKVQWKVDNALQSGNSQESVTEQDSKDSTYSLSSTLTLSKADYEKHKVYACEVTHQGLSSPVTKSFNRGEC | 67.6 | –

Continued by falling Kd (soluble human GPC3), values first:

Kd (soluble human CD3ε chain) [nM] | Kd (soluble human GPC3) [nM] | Binder
– | 2.16 | H0610-G1dh/none-Hi-Kn010G3/L0000vk1-k0 (antibody, human IgG1, kappa, single-arm (one Fab)) heavy: not shown EPKSSDKTHTCPPCPAPELLGGPSVFLFPPKPKDTLMISRTPEVTCVVVDVSHEDPEVKFNWYVDGVEVHNAKTKPREEQYNSTYRVVSVLTVLHQDWLNGKEYKCKVSNKALPAPIEKTISKAKGQPREPQVCTLPPSRDELTKNQVSLWCLVKGFYPSDIAVEWESNGQPENNYKTTPPVLDSDGSFFLYSKLTVDKSRWQQGNVFSCSVMHEALHNRYTQKSLSLSP light: DIQMTQSPSSLSASVGDRVTITCRSSQSLVHSNRNTYLHWYQQKPGKAPKLLIYKVSNRFSGVPSRFSGSGSGTDFTFTISSLQPEDIATYYCGQGTQVPYTFGQGTKVEIKRTVAAPSVFIFPPSDEQLKSGTASVVCLLNNFYPREAKVQWKVDNALQSGNSQESVTEQDSKDSTYSLSSTLTLSKADYEKHKVYACEVTHQGLSSPVTKSFNRGEC
– | 2.16 | H0610-G1dh/none-Hi-Kn010G3/TR01L015-k0 (antibody, human IgG1, kappa, single-arm (one Fab)) heavy: not shown EPKSSDKTHTCPPCPAPELLGGPSVFLFPPKPKDTLMISRTPEVTCVVVDVSHEDPEVKFNWYVDGVEVHNAKTKPREEQYNSTYRVVSVLTVLHQDWLNGKEYKCKVSNKALPAPIEKTISKAKGQPREPQVCTLPPSRDELTKNQVSLWCLVKGFYPSDIAVEWESNGQPENNYKTTPPVLDSDGSFFLYSKLTVDKSRWQQGNVFSCSVMHEALHNRYTQKSLSLSP light: DIVMTQSPLSLPVTPGEPASISCRSSQSPVHSNRNTYLHWYLQKPGQSPQLLIYKVSNRFSGVPDRFSGSGSGTDFTLKISRVEAEDVGVYYCGQGTQVPYTFGQGTKLEIKRTVAAPSVFIFPPSDEQLKSGTASVVCLLNNFYPREAKVQWKVDNALQSGNSQESVTEQDSKDSTYSLSSTLTLSKADYEKHKVYACEVTHQGLSSPVTKSFNRGEC
– | 1.15 | H0610-G1dh/none-Hi-Kn010G3/TR01L019-k0 (antibody, human IgG1, kappa, single-arm (one Fab)) heavy: not shown EPKSSDKTHTCPPCPAPELLGGPSVFLFPPKPKDTLMISRTPEVTCVVVDVSHEDPEVKFNWYVDGVEVHNAKTKPREEQYNSTYRVVSVLTVLHQDWLNGKEYKCKVSNKALPAPIEKTISKAKGQPREPQVCTLPPSRDELTKNQVSLWCLVKGFYPSDIAVEWESNGQPENNYKTTPPVLDSDGSFFLYSKLTVDKSRWQQGNVFSCSVMHEALHNRYTQKSLSLSP light: DIVMTQSPLSLPVTPGEPASISCQASESPVHSNRNTYLHWYLQKPGQSPQLLIYKVSNRFSGVPDRFSGSGSGTDFTLKISRVEAEDVGVYYCYQGTQVPYTFGQGTKLEIKRTVAAPSVFIFPPSDEQLKSGTASVVCLLNNFYPREAKVQWKVDNALQSGNSQESVTEQDSKDSTYSLSSTLTLSKADYEKHKVYACEVTHQGLSSPVTKSFNRGEC
– | 1.08 | H0610-G1dh/none-Hi-Kn010G3/TR01L016-k0 (antibody, human IgG1, kappa, single-arm (one Fab)) heavy: not shown EPKSSDKTHTCPPCPAPELLGGPSVFLFPPKPKDTLMISRTPEVTCVVVDVSHEDPEVKFNWYVDGVEVHNAKTKPREEQYNSTYRVVSVLTVLHQDWLNGKEYKCKVSNKALPAPIEKTISKAKGQPREPQVCTLPPSRDELTKNQVSLWCLVKGFYPSDIAVEWESNGQPENNYKTTPPVLDSDGSFFLYSKLTVDKSRWQQGNVFSCSVMHEALHNRYTQKSLSLSP light: DIVMTQSPLSLPVTPGEPASISCRSSQSPVHSNRNTYLHWYLQKPGQSPQLLIYKVSNRFSGVPDRFSGSGSGTDFTLKISRVEAEDVGVYYCYQGTQVPYTFGQGTKLEIKRTVAAPSVFIFPPSDEQLKSGTASVVCLLNNFYPREAKVQWKVDNALQSGNSQESVTEQDSKDSTYSLSSTLTLSKADYEKHKVYACEVTHQGLSSPVTKSFNRGEC
– | 0.0224 | H0610-G1dh/none-Hi-Kn010G3/TR01L020-k0 (antibody, human IgG1, kappa, single-arm (one Fab)) heavy: not shown EPKSSDKTHTCPPCPAPELLGGPSVFLFPPKPKDTLMISRTPEVTCVVVDVSHEDPEVKFNWYVDGVEVHNAKTKPREEQYNSTYRVVSVLTVLHQDWLNGKEYKCKVSNKALPAPIEKTISKAKGQPREPQVCTLPPSRDELTKNQVSLWCLVKGFYPSDIAVEWESNGQPENNYKTTPPVLDSDGSFFLYSKLTVDKSRWQQGNVFSCSVMHEALHNRYTQKSLSLSP light: DIVMTQSPLSLPVTPGEPASISCQASESPVHSNRNTYIQWYLQKPGQSPQLLIYKVSNRFSGVPDRFSGSGSGTDFTLKISRVEAEDVGVYYCYQGTQVPYTFGQGTKLEIKRTVAAPSVFIFPPSDEQLKSGTASVVCLLNNFYPREAKVQWKVDNALQSGNSQESVTEQDSKDSTYSLSSTLTLSKADYEKHKVYACEVTHQGLSSPVTKSFNRGEC
– | 0.00827 | H0610-G1dh/none-Hi-Kn010G3/TR01L017-k0 (antibody, human IgG1, kappa, single-arm (one Fab)) heavy: not shown EPKSSDKTHTCPPCPAPELLGGPSVFLFPPKPKDTLMISRTPEVTCVVVDVSHEDPEVKFNWYVDGVEVHNAKTKPREEQYNSTYRVVSVLTVLHQDWLNGKEYKCKVSNKALPAPIEKTISKAKGQPREPQVCTLPPSRDELTKNQVSLWCLVKGFYPSDIAVEWESNGQPENNYKTTPPVLDSDGSFFLYSKLTVDKSRWQQGNVFSCSVMHEALHNRYTQKSLSLSP light: DIVMTQSPLSLPVTPGEPASISCRSSQSPVHSNRNTYIQWYLQKPGQSPQLLIYKVSNRFSGVPDRFSGSGSGTDFTLKISRVEAEDVGVYYCYQGTQVPYTFGQGTKLEIKRTVAAPSVFIFPPSDEQLKSGTASVVCLLNNFYPREAKVQWKVDNALQSGNSQESVTEQDSKDSTYSLSSTLTLSKADYEKHKVYACEVTHQGLSSPVTKSFNRGEC
